Reference: paper PMC5561080, “The Gαi-GIV binding interface is a druggable protein-protein interaction” (Scientific Reports, 2017)
Where two headings read alike, the source gives them in different places. Blank lines part the entries; values can stand above or below the molecule they belong to. No end group written: not given here. 5,6‑carboxyfluorescein = 5,6-carboxyfluorescein

T1: rat His-Gαi3 (rat, UniProt P08753 1-354)
T1 chain: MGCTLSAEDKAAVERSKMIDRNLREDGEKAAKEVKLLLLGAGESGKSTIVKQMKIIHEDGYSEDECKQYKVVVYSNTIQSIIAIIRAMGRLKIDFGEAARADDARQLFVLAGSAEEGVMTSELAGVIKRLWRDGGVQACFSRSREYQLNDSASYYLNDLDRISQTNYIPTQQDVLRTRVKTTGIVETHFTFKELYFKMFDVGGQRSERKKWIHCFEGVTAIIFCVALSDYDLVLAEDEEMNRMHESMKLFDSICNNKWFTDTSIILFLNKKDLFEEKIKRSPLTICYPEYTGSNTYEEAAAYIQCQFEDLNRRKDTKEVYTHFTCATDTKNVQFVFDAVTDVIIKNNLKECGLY

B1: fluorescently-labeled GIV 1671–1701 peptide (peptide)
peptide: {5,6‑carboxyfluorescein}-KTGSPGSEVVTLQQFLEESNKLTSVQIKSSS
notes: Made on MBHA resin, which would leave a C-terminal amide; source: synthetic peptide (Boc-SPPS, RP-HPLC purified)
B2: human His-GIV-CT (1660–1870) (domain or fragment, UniProt Q3V6T2-3 1660-1870, looked up)
chain: SETLESRHHKIKTGSPGSEVVTLQQFLEESNKLTSVQIKSSSQENLLDEVMKSLSVSSDFLGKDKPVSCGLARSVSGKTPGDFYDRRTTKPEFLRPGPRKTEDTYFISSAGKPTPGTQGKIKLVKESSLSRQSKDSNPYATLPRASSVISTAEGTTRRTSIHDFLTKDSRLPISVDSPPAAADSNTTAASNVDKVQESRNSKSRSREQQSS
notes: also called His-tagged GIV 1660–1870; source: E. coli BL21(DE3), purified (HisPur Cobalt resin, dialysed against PBS)
B3: fluorescein-labeled GIV 1671–1689 peptide (peptide)
peptide: {5,6‑carboxyfluorescein}-KTGSPGSEVVTLQQFLEES-NH2
notes: as for B1
B4: fluorescein-labeled GIV 1671–1705 peptide (peptide)
peptide: {5,6‑carboxyfluorescein}-KTGSPGSEVVTLQQFLEESNKLTSVQIKSSSQENL
notes: Made on MBHA resin, which would leave a C-terminal amide; also called fluorescently-labeled GIV peptide; source: synthetic peptide (Boc-SPPS, RP-HPLC purified)
B5: fluorescein-labeled GIV 1671–1696 peptide (peptide)
peptide: {5,6‑carboxyfluorescein}-KTGSPGSEVVTLQQFLEESNKLTSVQ-NH2
notes: as for B1
B6: GST-GIV 1671–1705 (domain or fragment, human)
chain: KTGSPGSEVVTLQQFLEESNKLTSVQIKSSSQENL
notes: limits not spelled out in the text for this one; also called GST-fused GIV truncation construct of 35 amino acids; source: purified
B7: unlabeled GIV 1671–1701 peptide (peptide)
peptide: KTGSPGSEVVTLQQFLEESNKLTSVQIKSSS
notes: as for B1
B8: GST-GIV 1671–1755 (domain or fragment, human, UniProt Q3V6T2-3 1671-1755, looked up)
chain: KTGSPGSEVVTLQQFLEESNKLTSVQIKSSSQENLLDEVMKSLSVSSDFLGKDKPVSCGLARSVSGKTPGDFYDRRTTKPEFLRP
notes: source: E. coli BL21(DE3), purified (Glutathione Agarose)
B9: untagged rat Gαi3 (natural protein, UniProt P08753 1-354, looked up)
chain: T1 chain
notes: from a pET28b plasmid containing a thrombin cleavage site; also called untagged Gαi3; unlabeled Gαi3; source: E. coli BL21(DE3); rat His-Gαi3 cleaved with agarose-immobilized thrombin, passed over HisPur Cobalt beads, gel filtration (Superdex S200)

Key:
rat His-Gαi3 [1] = target: T2, rat His-Gαi3 (Rattus norvegicus, UniProt P08753); assay: fluorescence polarization competition; format: binding
T2 construct: gene Gnai3

rat GST-Gαi3 [2] = target: T3, rat GST-Gαi3 (Rattus norvegicus, UniProt P08753); assay: AlphaScreen protein-protein binding inhibition; details: displacement of His-GIV-CT 1660-1870 (75 nM each protein); GDP 30 µM, 5 mM MgCl2, pH 7.4, room temperature
T3 construct: gene Gnai3

rat GST-Gαi3 [3] = target: T3, rat GST-Gαi3; assay: AlphaScreen protein-protein binding inhibition; details: displacement of His-GIV-CT 1660-1870 (75 nM each protein); GDP 30 µM, 5 mM MgCl2, pH 7.4, room temperature; remark: listed apart in the source
human Gαi3 = target: T4, human Gαi3 (Homo sapiens, UniProt P08754); assay: 1H-15N TROSY NMR titration, chemical shift perturbation; format: binding; details: GDP-bound, pH 7.0, 30 °C, 10 mM MgCl2; site SwII/α3/W258 region
T4 construct: gene GNAI3

rat His-Gαi3 [4] = target: T1, rat His-Gαi3; assay: FP
rat His-Gαi3 [5] = target: T5, rat His-Gαi3 (rat, UniProt P08753 1-354); assay: fluorescence polarisation; competition: His-Gαi3 1 µM with fluorescently-labeled GIV 1671–1701 25 nM and increasing unlabeled GIV peptide or His-GIV-CT (0.5–20 µM); buffer with 30 µM GDP; details: both partners purified
T5 construct: GDP-loaded in the buffers; Pull-down and FP methods name the rat protein; also called purified His-Gαi3; source: E. coli BL21(DE3), purified (HisPur Cobalt resin, buffer exchange on HiTrap Desalting)

rat GST-Gαi3 [6] = target: T6, rat GST-Gαi3 (rat, UniProt P08753 1-354); assay: AlphaScreen or HTRF; His-GIV-CT on nickel-chelate donor beads, GST-Gαi3 on glutathione acceptor beads; 25–100 nM each (75 nM chosen), 10 and 5 µg/ml beads; 50 mM Tris-HCl pH 7.4, 100 mM NaCl, 0.4% NP-40, 5 mM MgCl2, 2 mM DTT, 30 µM GDP; room temperature, 2.5 h; details: both partners purified
T6 construct: source: E. coli BL21(DE3), purified (Glutathione Agarose, buffer exchange on HiTrap Desalting)

rat His-Gαi3 [7] = target: T5, rat His-Gαi3; assay: fluorescence polarisation; fluorescently-labeled GIV peptide 25 nM, rat His-Gαi3 titrated 0.125–10 µM, room temperature; 50 mM Tris-HCl pH 7.4, 100 mM NaCl, 0.4% NP-40, 10 mM MgCl2, 5 mM EDTA, 2 mM DTT, 30 µM GDP; one-site binding model; details: both partners purified
rat His-Gαi3 [8] = target: T5, rat His-Gαi3; assay: pull-down; 10 µg GST or GST-GIV (~1.25 µM) immobilised on glutathione agarose beads; rat His-Gαi3 0.1–5 µM, 4 h at 4 °C; 50 mM Tris-HCl pH 7.4, 100 mM NaCl, 0.4% NP-40, 10 mM MgCl2, 5 mM EDTA, 2 mM DTT, 30 µM GDP; SDS-PAGE, Coomassie blue; details: both partners purified
[9] = target: B2; assay: AlphaScreen or HTRF; competition: 75 nM His-GIV-CT and 75 nM GST-Gαi3 on beads with increasing untagged Gαi3 in solution; buffer with 30 µM GDP; one-site sigmoidal inhibition curve; details: both partners purified

T3 sequence (Q3V6T2 1660-1870 partner, one chain of several): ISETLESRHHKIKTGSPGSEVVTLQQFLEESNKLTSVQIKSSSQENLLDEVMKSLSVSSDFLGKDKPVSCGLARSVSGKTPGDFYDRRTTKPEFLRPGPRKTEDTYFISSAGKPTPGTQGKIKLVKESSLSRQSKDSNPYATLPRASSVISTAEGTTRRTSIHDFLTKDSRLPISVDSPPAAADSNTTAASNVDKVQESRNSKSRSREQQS
T4 sequence (P08754 whole entry): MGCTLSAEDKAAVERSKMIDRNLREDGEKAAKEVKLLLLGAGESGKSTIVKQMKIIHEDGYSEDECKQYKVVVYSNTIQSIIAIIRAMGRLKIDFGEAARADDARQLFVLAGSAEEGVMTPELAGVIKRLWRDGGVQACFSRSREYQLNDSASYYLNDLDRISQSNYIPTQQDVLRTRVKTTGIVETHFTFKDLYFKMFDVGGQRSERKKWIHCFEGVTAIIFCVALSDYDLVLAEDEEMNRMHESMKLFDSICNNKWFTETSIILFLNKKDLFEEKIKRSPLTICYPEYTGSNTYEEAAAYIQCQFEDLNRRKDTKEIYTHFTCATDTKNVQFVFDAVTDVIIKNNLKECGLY

Molecule: O=C(Nc1cc(C(=O)Nc2ccc(S(=O)(=O)O)cc2S(=O)(=O)O)cc(C(=O)Nc2ccc(S(=O)(=O)O)cc2S(=O)(=O)O)c1)Nc1cc(C(=O)Nc2ccc(S(=O)(=O)O)cc2S(=O)(=O)O)cc(C(=O)Nc2ccc(S(=O)(=O)O)cc2S(=O)(=O)O)c1 [NF449]
IC50 (rat His-Gαi3 [1]; displacement of fluorescein-GIV 1671-1701 peptide (25 nM), GDP 30 µM, 10 mM MgCl2, pH 7.4, room temperature): NF449 inhibits Gαi3-GIV binding with a potency similar to that of NF023

IC50 (rat His-Gαi3 [1]; read-out: IC50): ~50000 nM
Molecule: Cc1ccc(C(=O)Nc2ccc(S(=O)(=O)O)c3cc(S(=O)(=O)O)cc(S(=O)(=O)O)c23)cc1NC(=O)c1cccc(NC(=O)Nc2cccc(C(=O)Nc3cc(C(=O)Nc4ccc(S(=O)(=O)O)c5cc(S(=O)(=O)O)cc(S(=O)(=O)O)c45)ccc3C)c2)c1 [suramin]
AlphaScreen protein-protein binding inhibition (rat GST-Gαi3 [2]): suramin is a less potent inhibitor than NF023 in the same AlphaScreen

IC50 (rat His-Gαi3 [1]; read-out: IC50): ~5000 nM
Molecule: O=C(O)C1=CC(=C(c2ccc(O)c(C(=O)O)c2)c2ccc(O)c(C(=O)O)c2)C=CC1=O [ATA]
% inhibition at 10 μM (rat GST-Gαi3 [3]): ATA and NF023 efficiently inhibited Gαi3-GIV binding as determined by AlphaScreen

IC50 (rat His-Gαi3 [1]; read-out: IC50): ~5000 nM
Molecule: O=C(Nc1cccc(C(=O)Nc2ccc(S(=O)(=O)O)c3cc(S(=O)(=O)O)cc(S(=O)(=O)O)c23)c1)Nc1cccc(C(=O)Nc2ccc(S(=O)(=O)O)c3cc(S(=O)(=O)O)cc(S(=O)(=O)O)c23)c1 [NF023]
1H-15N TROSY NMR titration, chemical shift perturbation (human Gαi3): revealed significant Chemical Shift Perturbations (CSP) in only a fraction
% inhibition at 10 μM (rat GST-Gαi3 [3]): ATA and NF023 efficiently inhibited Gαi3-GIV binding as determined by AlphaScreen

Molecule: B1
Kd (rat His-Gαi3 [4]): 460 nM
binding result (rat His-Gαi3 [5]): binds

Molecule: B2
binding result (rat His-Gαi3 [5]): binds
binding result (rat GST-Gαi3 [6]): binds

Molecule: B3
Kd (rat His-Gαi3 [7]): ~1000 nM

Molecule: B4
Kd (rat His-Gαi3 [4]): 560 nM
Kd (rat His-Gαi3 [7]): ~500 nM

binding result (rat His-Gαi3 [8]): binds
Molecule: KTGSPGSEVVTLQQFLEES (domain or fragment, human, source: purified) [GST-GIV 1671–1689]

Molecule: B5
Kd (rat His-Gαi3 [7]): ~650 nM

binding result (rat His-Gαi3 [8]): binds
Molecule: KTGSPGSEVVTLQQFLEESNKLTSVQ (domain or fragment, human, source: purified) [GST-GIV 1671–1696]

Molecule: B6
binding result (rat His-Gαi3 [8]): binds

Molecule: B7
binding result (rat His-Gαi3 [5]): binds

binding result (rat His-Gαi3 [8]): binds
Molecule: KTGSPGSEVVTLQQFLEESNKLTSVQIKSSS (domain or fragment, human, source: purified) [GST-fused GIV 1671–1701]

Molecule: B8
binding result (rat His-Gαi3 [8]): binds

Molecule: B9
IC50 [9]: ~1000 nM
